Measurements published in article PMC10352329.

How the values were obtained:
[1] = test system: p300 BRP wild-type (Homo sapiens); test: MST; conditions: human octamer H2A type 1-B/E, H2B type 1-J, MST and cryo-EM sample buffers not in the material, MST 10 µM CBP30 where stated
[2] = test system: p300 BRP 4A (Homo sapiens); test: MST; conditions: human octamer H2A type 1-B/E, H2B type 1-J, MST and cryo-EM sample buffers not in the material, MST 10 µM CBP30 where stated
[3] = target: Histone H4 K8ac/K12ac (Homo sapiens) (UniProt P62805); conditions: cited from earlier work
[4] = target: Histone H4 K12ac/K16ac (Homo sapiens) (UniProt P62805); conditions: cited from earlier work
[5] = target: human p300BRP (residues 1048–1282), wild type (human) (UniProt Q09472); test: MST; p300BRP fluorescently labeled (His tag Labeling Kit), 2-fold serial dilutions of 180-bp nucleosome; 10 mM HEPES-NaOH pH 7.4, 150 mM NaCl, 0.05% Tween-20; 25 °C; Hill equation, half-saturation concentration (K1/2)
[6] = target: human p300BRP (residues 1048–1282), 4A-substituted mutant (R1133A, K1134A, R1137A, K1140A) (human) (UniProt Q09472); test: as above
[7] = target: human p300BRP (residues 1048–1282), wild type (human) (UniProt Q09472); test: MST; as a2, but p300BRP incubated beforehand with 10 μM CBP30 (inhibitor of the bromodomain pocket) for at least 20 min
[8] = target: human p300BRP (residues 1048–1282), 4A-substituted mutant (R1133A, K1134A, R1137A, K1140A) (human) (UniProt Q09472); test: as above
[9] = no CBP30, H3.1, H4 with K12ac/K16ac

human p300BRP (residues 1048–1282), wild type (human), sequence (Q09472 1048-1282): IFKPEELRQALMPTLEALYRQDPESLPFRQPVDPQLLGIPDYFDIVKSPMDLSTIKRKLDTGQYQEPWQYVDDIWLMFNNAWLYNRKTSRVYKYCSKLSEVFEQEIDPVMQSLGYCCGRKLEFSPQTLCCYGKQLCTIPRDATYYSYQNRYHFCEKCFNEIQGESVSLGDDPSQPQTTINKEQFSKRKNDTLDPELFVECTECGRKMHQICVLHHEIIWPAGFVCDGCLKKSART
human p300BRP (residues 1048–1282), 4A-substituted mutant (R1133A, K1134A, R1137A, K1140A) (human), sequence (Q09472 1048-1282 R1133A/K1134A/R1137A/K1140A): as the sequence (Q09472 1048-1282) above, with R86A, K87A, R90A, K93A counted along it

Substance: H4acNuc (180-bp, H4K12ac/K16ac)
- K half ([1]; H3.1, H4 with K12ac/K16ac): 1.2 nM
- K half [1, 9]: 0.35 nM
- K half ([2]; H3.1, H4 with K12ac/K16ac): 3.5 nM
- K half [2, 9]: 1.8 nM

Substance: p300/CBP bromodomain bromodomain (from UniProt Q09472)
- Kd [3]: 90 µM
- Kd [4]: 25 µM

Substance: unmodified 180-bp nucleosome
- K half ([1]; no CBP30, H3.1, H4, unmodified): 2.2 nM
- K half ([2]; no CBP30, H3.1, H4, unmodified): 7.3 nM

Substance: 180-bp unmodified nucleosome (from UniProt P04908 1-130; P68431 1-136; P62805 1-103) (complex)
- K1/2 (half-saturation concentration) [5]: 2.2 nM

Substance: 180-bp nucleosome having H4K12ac/K16ac (H4acNuc) (from UniProt P04908 1-130; P68431 1-136; P62805 1-103) (complex)
- K1/2 (half-saturation concentration) [5]: 0.35 nM
- K1/2 (half-saturation concentration) [6]: 1.8 nM
- K1/2 (half-saturation concentration) after incubation with CBP30 [7]: 1.2 nM
- K1/2 (half-saturation concentration) after incubation with CBP30 [8]: 3.5 nM
